Test in all cases: SPR
Background: Surface plasmon resonance follows binding to a sensor surface in real time, without labels.

The target of test [1] is T1, recombinant laminin LAMA3_(2928–3150) protein (human, UniProt Q16787 2928-3150).
T1 chain: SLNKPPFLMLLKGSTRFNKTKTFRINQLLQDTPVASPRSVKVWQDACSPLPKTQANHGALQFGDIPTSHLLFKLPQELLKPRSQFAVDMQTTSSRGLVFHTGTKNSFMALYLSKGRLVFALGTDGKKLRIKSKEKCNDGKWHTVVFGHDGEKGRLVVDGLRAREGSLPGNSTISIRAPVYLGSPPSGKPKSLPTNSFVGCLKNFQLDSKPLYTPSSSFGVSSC

Test [2] concerns the target T1, recombinant laminin LAMA3_(2928–3150) ….
In test [3] the target is recombinant human laminin-521 (human, UniProt O15230 36-3695; P55268 33-1798; P11047 34-1609).

B1: vascular endothelial cell growth factor VEGF-A165 (ligand)
chain: APMAEGGGQNHHEVVKFMDVYQRSYCHPIETLVDIFQEYPDEIEYIFKPSCVPLMRCGGCCNDEGLECVPTEESNITMQIMRIKPHQGQHIGEMSFLQHNKCECRPKKDRARQENPCGPCSERRKHLFVQDPQTCKCSCKNTDSRCKARQLELNERTCRCDKPRR
The term Kd denotes the equilibrium constant for the complex coming apart. The term koff denotes the first-order rate constant of dissociation. For B1, the dissociation constant Kd in test [1] is 1.47 nM. In addition, the koff worked out at 0.00663 s⁻¹ in test [2] and 0.00324 s⁻¹ in test [3].

B2: platelet-derived growth factor PDGF-BB (ligand)
chain: SLGSLTIAEPAMIAECKTRTEVFEISRRLIDRTNANFLVWPPCVEVQRCSGCCNNRNVQCRPTQVQLRPVQVRKIEIVRKKPIFKKATVTLEDHLACKCETVAAARPVT
For B2, the Kd in test [1] is 12.1 nM. The off-rate constant (koff) was 0.0136 s⁻¹ in test [2] and 0.00497 s⁻¹ in test [3].

B3: placental growth factor (PlGF)-2 (ligand)
chain: LPAVPPQQWALSAGNGSSEVEVVPFQEVWGRSYCRALERLVDVVSEYPSEVEHMFSPSCVSLLRCTGCCGDENLHCVPVETANVTMQLLKIRSGDRPSYVELTFSQHVRCECRPLREKMKPERRRPKGRGKRRREKQRPTDCHLCGDAVPRR
For B3, the koff in test [3] is 0.0246 s⁻¹.

The values are drawn from article PMC5986797 (2018).
